Reference: patent US20240358862A1, “Synthesis Method and Application of a Near-infrared Probe GGa-ICG specific binding to PSCA” (Guangzhou Shiyun Biotechnology Co., Ltd, priority 2022, published 2024)

What was measured:
PC-3 cells = experiment: Endocytosis experiment; format: cell-based, human; settings: 37° C. vs 4° C., trypsin wash
Method: PC-3 cells were incubated with 200 nM GGa-ICG or ssDNA-ICG in 200 μL binding buffer at 37° C. for 10 minutes to observe cell membrane binding. After 2 hours of incubation, the cells were treated with 0.25% trypsin or 0.1 mg/mL proteinase K at 37° C. for 10 minutes to observe internal binding.
For inhibition of endocytosis, PC-3 cells were incubated with 200 nM GGa-ICG or ssDNA-ICG in 200 μL binding buffer at 4° C. for 2 hours to observe cell membrane binding. After 4 hours of incubation, the cells were treated with 0.25% trypsin or 0.1 mg/mL proteinase K at 37° C. for 10 minutes to observe internal binding.

cells = experiment: MTT experiment (in vitro cell toxicity); format: cell-based; settings: 2-20 times the Kd value concentration
Method: MTT assay was used to measure the in vitro cell toxicity in a 96-well plate. In brief, cells (6×10^3 cells per well) were treated with GGa-ICG (at concentrations of 0, 20, 200 nM, 10 μM, etc.), free drugs, or hybrids in the culture medium (RPMI1640 without FBS, unless otherwise specified; 37° C.; 5% CO2). […]

PSCA [1] = target: T1, PSCA (Homo sapiens, UniProt O43653); experiment: Mass spectrometry analysis of the target protein of GGa-ICG; format: binding; set-up: Membrane proteins of PC-3 cells were extracted; endogenous in cells; host or cells: PC-3; settings: PC-3 membrane proteins, 35 kDa band
T1 sequence (O43653 12-83): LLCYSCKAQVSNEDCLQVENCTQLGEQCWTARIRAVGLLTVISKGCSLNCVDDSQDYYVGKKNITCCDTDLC
Method: PC-3 cells were washed three times with cold PBS buffer and lysed at 4° C. for 30 minutes in 5 mL of low-salt buffer [50 mM Tris-HCl (pH=7.5) containing protease inhibitor (0.1 mM PMSF complex)]. After centrifugation, the pellets were washed 3 times with 5 mL of low-salt buffer and then solubilized in 1.5 mL of lysis buffer (PBS containing 5 mM MgCl2 and 1% Triton X-100) at 4° C. for 30 minutes. The resulting supernatants were separately incubated with beads, ssDNA-ICG, or GGa-ICG at 4° C. for 1 hour. Protein-ssDNA-ICG or protein-GGa-ICG complexes were then captured by incubating them with 2 mg (200 μL) of streptavidin beads at 4° C. for 45 minutes. After centrifugation, the captured proteins were heated and eluted in 30 μL of loading buffer and then analyzed by SDS-PAGE gel and Coomassie blue staining. The protein bands showing significant differences in aptamer purification among different groups were subjected to in situ digestion and analyzed by LC-MS/MS.
Based on the above results, total membrane proteins were extracted from PC-3 cells and incubated with biotinylated GGa-ICG or ssDNA-ICG separately. Then, the binding complex was separated using streptavidin-coated magnetic beads and analyzed by SDS-PAGE gel. A characteristic protein band with a relative molecular weight of 35 kDa was found in the GGa-ICG column, which was digested and analyzed by LC-MS/MS QSTAR.

[2] = Fluorescence stability detection; format: physicochemical
Method: Stability testing was divided into two groups: 1) stability testing under excitation wavelength and 2) stability testing of GGa-ICG under visible light. Excitation wavelength of 780 nm (GGa-ICG, ssDNA-ICG, and ICG) and visible light were used to excite the fluorescence probe GGa-ICG. Fluorescence detection was performed, and the changes in fluorescence intensity were recorded using a fluorescence spectrophotometer.

[3] = test system: subcutaneous transplantation tumor models; experiment: In vivo visualization in subcutaneous transplantation tumor models of other cancers
From the text: PSCA is expressed at high levels in various tumors such as prostate cancer, bladder cancer, kidney cancer, breast cancer, colon cancer, lung cancer, pancreatic cancer, etc. Using the aforementioned method, T24 bladder cancer cells, Cakil renal cancer cells, MDA-MB468 breast cancer cells, HT29 colon cancer cells, PANC1 pancreatic cancer cells, NCI-H460 lung cancer cells, and other cell lines were stained with GGa-ICG for flow cytometry analysis. Positive cell lines were used to establish subcutaneous transplantation tumor models to detect the visualization of GGa-ICG in vivo.

[4] = Toxicity test of GGa-ICG (serum enzymatic testing); format: in vivo; settings: serum of nude mice 72 hours after injection
Method: Blood serum was collected from nude mice injected with GGa-ICG for 72 hours and subjected to enzymatic testing.

[5] = Water solubility compared to ICG; format: physicochemical
PSCA [6] = target: T1, PSCA; experiment: In vivo blocking of GGa-ICG by PSCA antibodies; set-up: endogenous in cells; species or system nude mice; settings: 1 mg PSCA antibody pre-injected, GGa-ICG 12 hours later
Method: 1 mg of PSCA antibody was pre-injected into nude mice, followed by injection of GGa-ICG 12 hours later, and live imaging was performed to observe the phenomenon of GGa-ICG binding.

Substance: GGa-ICG: near-infrared probe: PSCA-binding nucleic acid aptamer GGa linked at 3′ to an ICG derivative dye (DNA TGCCACTACAGCTGGTTCGGTTTGGTGACTTCGTTCTTCGTTGTGGT; 3'-ICG dye, further chemistry not given here)
- mode of cell entry (PC-3 cells): enters cells through endocytosis
- cell inhibition in MTT experiment (cells): no significant cell inhibition
- target protein hit list by LC-MS/MS (PSCA [1]): PSCA ranking first
- time after which fluorescence was extinguished ([2]; after excitation at 780 nm): 1 h
- fluorescence quenching under visible light excitation ([2]; visible light, during the detection time): did not exhibit fluorescence quenching
- in vivo binding in multiple cancer types [3]: consistent with PSCA expression
- in vivo toxicity (serological test) [4]: did not show in vivo toxicity
- water solubility compared to existing ICG [5]: improved
- blocking of tumor visualization by PSCA antibody (PSCA [6]): Completely Blocked
